Test results taken from paper PMC8627417 (Journal for Immunotherapy of Cancer, 2021).

Biological target: receptor of advanced glycation end products (RAGE) (UniProt Q15109 23-404)
Sequence (Q15109 23-404): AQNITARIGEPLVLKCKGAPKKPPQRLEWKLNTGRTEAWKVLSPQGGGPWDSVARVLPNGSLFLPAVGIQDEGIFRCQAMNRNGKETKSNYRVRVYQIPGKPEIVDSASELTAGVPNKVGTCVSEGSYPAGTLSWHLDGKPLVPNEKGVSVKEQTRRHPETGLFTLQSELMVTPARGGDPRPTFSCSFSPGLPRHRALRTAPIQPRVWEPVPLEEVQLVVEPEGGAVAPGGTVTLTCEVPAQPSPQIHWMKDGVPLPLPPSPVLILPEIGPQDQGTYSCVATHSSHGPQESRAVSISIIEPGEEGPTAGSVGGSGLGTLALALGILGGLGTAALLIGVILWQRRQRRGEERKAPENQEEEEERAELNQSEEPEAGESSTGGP

B1: chitinase 3-like 1 (CHI3L1) (natural protein)
chain: not shown
Kd: ~16 nM
